This is an account of results in patent US11773143B2, “Conformational epitopes in respiratory syncytial virus G protein central conserved region” (priority 2017, dated 2023).

Where no end group is shown, it is not given here.

For one test, the target named is T1, CX3CR1 (Homo sapiens, UniProt P49238).
T1 construct: THP-1 cells (a human leukemia monocytic cell line) washed twice and suspended in serum-free RPMI 1640 media; endogenous in cells; host or cells: THP-1
T1 sequence (P49238 1-355): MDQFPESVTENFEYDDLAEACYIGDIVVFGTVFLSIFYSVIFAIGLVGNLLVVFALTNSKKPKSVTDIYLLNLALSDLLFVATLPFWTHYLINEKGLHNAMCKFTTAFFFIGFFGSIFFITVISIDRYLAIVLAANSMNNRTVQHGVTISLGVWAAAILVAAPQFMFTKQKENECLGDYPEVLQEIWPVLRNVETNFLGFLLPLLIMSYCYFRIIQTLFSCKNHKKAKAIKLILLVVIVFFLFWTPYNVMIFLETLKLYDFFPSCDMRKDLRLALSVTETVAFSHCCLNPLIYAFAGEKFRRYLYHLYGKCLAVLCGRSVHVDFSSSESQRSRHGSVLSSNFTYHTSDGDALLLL
Nature of the test: Chemotaxis assay: RSV G modulation of CX3CR1, receptor-mediated chemotaxis of THP-1 cells (transwell). To be noted: for Chemotactic activity: RSV G (CCR) variants, chemotaxis assay of Example 4, duplicate assays, standard deviations in parentheses. The test is classed as cell-based. How it is done: An in vitro assay for RSV G modulation of CX3CR1 measures receptor mediated chemotaxis of human monocyte THP-1 cells {Tripp, R. A. et al. Nature Immunology (2001) 2:732-738}. […]
In more detail, the assay was performed using a transwell insert plate with an 8 µm pore size. Approximately 2 million log-phase THP-1 cells (a human leukemia monocytic cell line) washed twice and suspended in serum-free RPMI 1640 media were added to the upper chamber of the insert plate. Negative control was serum-free media alone to which serum-free media containing 25 nM mAb was added to the lower chamber. As a positive control, media containing 10% FBS was added to the lower chamber. RSV G[ecto] or RSV G[161-197] samples were added to the lower chamber at a final concentration of 5 nM in serum-free media. For samples with RSV G[161-197] and mAbs, RSV G[161-197] was pre-incubated with 5-molar excess mAb for 20 min at room temperature, and then added to serum-free media in the lower chamber, for a final concentration of 5 nM RSV G[161-197] and 25 nM mAb. For samples with anti-CX3CR1 antibody, 2 μL 1 mg/mL anti-CX3CR1 rabbit polyclonal antibody (ThermoFisher Scientific Cat #PA5-19910) was incubated with THP-1 cells for 30 minutes in the upper chamber before being placed into the well. The assembled plates were incubated in a CO2 incubator at 37° C. for 5 h. Cells migrated to the lower chamber were counted, and the chemotactic indices were determined by comparing the fold-increase in cell migration toward the chemoattractant to cell migration toward serum-free media alone. Experiments were performed in at least four biological replicates.
Determination of structures of RSV G CCR protein in complex with the high affinity antibodies 2D10 and 3D3 shown in FIG. 4A-B provide a roadmap to design RSV G immunogens to disable CX3CR1 binding without disrupting the ability to generate high-affinity mAb epitopes. Specifically, six highly conserved amino acids have been identified whose side-chains make no molecular contacts with mAbs 3D3 and 2D10, so they can be substituted without impacting generation of high affinity mAbs similar to these mAbs. These residues are therefore candidates for substitution in order to interfere with binding to CX3CR1. Generally, providing an alteration in charge (charge switch) and/or a change in size or shape resulting in a steric hinderance (steric clash) would be expected to result in a negative impact on such binding. […] Six representative mutants have been tested for their impact on CX3CR1 function as measured by the chemotaxis assay described in Example 4. Table 4 summarizes the results of duplicate assays (with standard deviations) using the standard one letter abbreviations for the amino acid at the indicated residue.

Test [1] concerns RSV. To be noted: mice, day 5 post-inoculation, vs isotype control; cited from earlier work.
The test system of test [2] is RSV. To be noted: in vitro; cited from earlier work.
Another test deals with RSV G protein (Human respiratory syncytial virus A, UniProt P03423). The following applies: read-out: affinity; mAb binding to RSV G protein; cited from earlier work.
RSV G protein, sequence (P03423 whole entry): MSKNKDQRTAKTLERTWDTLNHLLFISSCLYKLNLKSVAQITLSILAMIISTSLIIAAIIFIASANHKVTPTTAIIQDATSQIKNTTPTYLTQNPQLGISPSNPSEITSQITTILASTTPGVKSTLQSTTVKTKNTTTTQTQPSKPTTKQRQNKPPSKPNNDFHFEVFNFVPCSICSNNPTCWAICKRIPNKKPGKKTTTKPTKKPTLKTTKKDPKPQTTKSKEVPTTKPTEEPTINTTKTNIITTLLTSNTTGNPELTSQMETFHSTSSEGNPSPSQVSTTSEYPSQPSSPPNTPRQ

As for “S177→W: RSV G (CCR) variant, S177 to W, steric clash (NDFHFEVFNFVPCSICWNNPTCWAICKRIPNKKPGKK; not fully specified (bridges); cysteine pairing not given here)”, the Chemotactic activity in the test with CX3CR1 was 1.2 (0.4).

With “S177→R: RSV G (CCR) variant, substitution of arginine for serine at position 177 (NDFHFEVFNFVPCSICRNNPTCWAICKRIPNKKPGKK; not fully specified (bridges); cysteine pairing not given here)”, the Chemotactic activity with CX3CR1 is 0.9 (0.2).

As to “H164→Y: RSV G (CCR) variant, H164 to Y, steric clash (NDFYFEVFNFVPCSICSNNPTCWAICKRIPNKKPGKK; not fully specified (bridges); cysteine pairing not given here)”, in the test with CX3CR1, the Chemotactic activity is listed as 3.8 (0.4).

Take “Wild type RSV G (CCR) (NDFHFEVFNFVPCSICSNNPTCWAICKRIPNKKPGKK; not fully specified (bridges); cysteine pairing not given here)”: the Chemotactic activity with CX3CR1 is reported as 6.2 (0.7).

“E166→K: RSV G (CCR) variant, E166 to K, charge switch (NDFHFKVFNFVPCSICSNNPTCWAICKRIPNKKPGKK; not fully specified (bridges); cysteine pairing not given here)”: the Chemotactic activity in the test with CX3CR1 is 1.6 (0.7).

Take “Synagis: humanized mouse mAb against RSV F protein”: the “effect on total BAL cells” value with RSV [1] is given as “did not reduce total BAL cells”.

Turning to “E166→K + K187 →E: RSV G (CCR) double variant, charge switch (NDFHFKVFNFVPCSICSNNPTCWAICERIPNKKPGKK; not fully specified (bridges); cysteine pairing not given here)”, the Chemotactic activity with CX3CR1 was 1.8 (0.1).

Consider “K192→E + K193 →E: RSV G (CCR) double variant, charge switch (NDFHFEVFNFVPCSICSNNPTCWAICKRIPNEEPGKK; not fully specified (bridges); cysteine pairing not given here)”, for which, in the test with CX3CR1, the Chemotactic activity is 2.5 (0.7).

B1: 3D3: high affinity, broadly neutralizing human mAb binding RSV G protein CCR (antibody, V domains shown)
VH: EEQLVESGGGLVQPGRSLRLSCVGSGLRFEEHAMHWVRQAPGRGLEWVSGISWNSGSVGYADSVKGRFTTSRDNAKDILFLEMNTLRSEDTALYFCAIMVATTKNDFHYYKDVWGKGTTVTVSS
VL: QIVLTQSPATLSLSPGERATLSCRASQSVSNHLAWYQQKPGQAPRLLIYETSNRATGIPPRFSGSGSGTDFTLTISSLEPEDFAVYYCQQRNNWYTFGQGTKLEIK
B1: the viral neutralizing activity entry with RSV [2] is “broad neutralizing activity”. Also, in the test with RSV G protein, the Kd is 1.1 pM. Moreover, the “Blocking of RSV G[161-197]-induced chemotaxis by pre-incubation with mAb” value with CX3CR1 (THP-1 cells, level comparable to anti-CX3CR1 polyclonal serum) is reported as “blocked”.
